The results in this text go back to FireProtDB (doi:10.1006/jmbi.1995.0325).

The chains are these.
B1: Subtilisin inhibitor, P01006 (parent)
chain: MRNTGAGPSPSVSRPPPSAAPLSGAALAAPGDAPSALYAPSALVLTVGKGVSATTAAPERAVTLTCAPGPSGTHPAAGSACADLAAVGGDLNALTRGEDVMCPMVYDPVLLTVDGVWQGKRVSYERVFSNECEMNAHGSSVFAF

Variants of B1 are the subject of this series. The following applies: Streptomyces albogriseolus, Thermal, DSC, reversible: yes, structure 3SSI, whole UniProt chain shown; for ddG of mutation (higher = less stable) / unfolding free energy: 53.36 °C.

As to MRNTGAGPSPSVSRPPPSAAPLSGAALAAPGDAPSALYAPSALVLTVGKGVSATTAAPERAVTLTCAPGPSGTHPAAGSACADLAAVGGDLNALTRGEDVMCPAVYDPVLLTVDGVWQGKRVSYERVFSNECEMNAHGSSVFAF [M104A], under “pH 3.2, glycine 25 mM”, the “ddG of mutation (higher = less stable)” value was -0.54 kcal/mol; the unfolding free energy amounted to 6.09 kcal/mol; the midpoint of thermal melting (Tm) came to 55 °C; the “change of melting temperature, mutant - wild type (higher = more stable)” value (shortened to “change of melting temperature, mutant”) amounted to 1.66 °C. The “unfolding enthalpy (calorimetric)” value (pH 3.2, glycine 25 mM) is 101 kcal/mol. Also, for the setting “pH 7, phosphate 25 mM”, the “ddG of mutation (higher = less stable)” value was -0.55 kcal/mol; the unfolding free energy was 6.58 kcal/mol; the Tm was 83.4 °C; the “change of melting temperature, mutant” value is 1.16 °C. Also, the “unfolding enthalpy (calorimetric)” value (pH 7, phosphate 25 mM) is 183 kcal/mol. In addition, where the note is “pH 9.5, glycine 25 mM”, the “ddG of mutation (higher = less stable)” value is -0.13 kcal/mol; the unfolding free energy is 6.17 kcal/mol; the Tm turned out to be 80.9 °C; the “change of melting temperature, mutant” value was 0.18 °C. The “unfolding enthalpy (calorimetric)” value (pH 9.5, glycine 25 mM) was 178 kcal/mol.
As for MRNTGAGPSPSVSRPPPSAAPLSGAALAAPGDAPSALYAPSALVLTVGKGVSATTAAPERAVTLTCAPGPSGTHPAAGSACADLAAVGGDLNALTRGEDVMCPEVYDPVLLTVDGVWQGKRVSYERVFSNECEMNAHGSSVFAF [M104E], where the note is “pH 3.2, glycine 25 mM”, the “ddG of mutation (higher = less stable)” value was -0.35 kcal/mol; the unfolding free energy amounted to 5.9 kcal/mol; the melting temperature (Tm) was 54.3 °C; the “change of melting temperature, mutant” value stood at 0.98 °C. Also, for the setting “pH 3.2, glycine 25 mM”, the “unfolding enthalpy (calorimetric)” value came to 103 kcal/mol. For the setting “pH 7, phosphate 25 mM”, the “ddG of mutation (higher = less stable)” value was -1.05 kcal/mol; the unfolding free energy came out at 7.08 kcal/mol; the melting temperature (Tm) was 84.2 °C; the “change of melting temperature, mutant” value stood at 1.99 °C. Besides, the “unfolding enthalpy (calorimetric)” value (pH 7, phosphate 25 mM) was determined as 185 kcal/mol.
Consider MRNTGAGPSPSVSRPPPSAAPLSGAALAAPGDAPSALYAPSALVLTVGKGVSATTAAPERAVTLTCAPGPSGTHPAAGSACADLAAVGGDLNALTRGEDVMCPLVYDPVLLTVDGVWQGKRVSYERVFSNECEMNAHGSSVFAF [M104L], for which, under “pH 3.2, glycine 25 mM”, the “ddG of mutation (higher = less stable)” value is 0.13 kcal/mol; the unfolding free energy worked out at 5.42 kcal/mol; the Tm turned out to be 52.9 °C; the “change of melting temperature, mutant” value is -0.43 °C. Moreover, under “pH 3.2, glycine 25 mM”, the “unfolding enthalpy (calorimetric)” value stood at 108 kcal/mol. For the setting “pH 7, phosphate 25 mM”, the “ddG of mutation (higher = less stable)” value was determined as 0.25 kcal/mol; the unfolding free energy amounted to 5.78 kcal/mol; the midpoint of thermal melting (Tm) came to 81.8 °C; the “change of melting temperature, mutant” value was -0.46 °C. The “unfolding enthalpy (calorimetric)” value (pH 7, phosphate 25 mM) turned out to be 193 kcal/mol. Moreover, under “pH 9.5, glycine 25 mM”, the “ddG of mutation (higher = less stable)” value was 0.55 kcal/mol and the unfolding free energy came out at 5.49 kcal/mol.
As to MRNTGAGPSPSVSRPPPSAAPLSGAALAAPGDAPSALYAPSALVLTVGKGVSATTAAPERAVTLTCAPGPSGTHPAAGSACADLAAVGGDLNALTRGEDVMCPGVYDPVLLTVDGVWQGKRVSYERVFSNECEMNAHGSSVFAF [M104G], for the setting “pH 3.2, glycine 25 mM”, the midpoint of thermal melting (Tm) was 52.7 °C; the “change of melting temperature, mutant” value was -0.7 °C; the “unfolding enthalpy (calorimetric)” value worked out at 106 kcal/mol. Also, under “pH 7, phosphate 25 mM”, the “ddG of mutation (higher = less stable)” value worked out at 0.06 kcal/mol and the unfolding free energy was found to be 5.97 kcal/mol. In addition, for the setting “pH 9.5, glycine 25 mM”, the “ddG of mutation (higher = less stable)” value is 0.49 kcal/mol; the unfolding free energy is 5.55 kcal/mol; the Tm was found to be 79.8 °C; the “change of melting temperature, mutant” value was -0.87 °C. In addition, the “unfolding enthalpy (calorimetric)” value (pH 9.5, glycine 25 mM) turned out to be 186 kcal/mol.
Regarding MRNTGAGPSPSVSRPPPSAAPLSGAALAAPGDAPSALYAPSALVLTVGKGVSATTAAPERAVTLTCAPGPSGTHPAAGSACADLAAVGGDLNALTRGEDVMCPKVYDPVLLTVDGVWQGKRVSYERVFSNECEMNAHGSSVFAF [M104K], under “pH 3.2, glycine 25 mM”, the Tm was found to be 57.1 °C; the “change of melting temperature, mutant” value was found to be 3.71 °C; the “unfolding enthalpy (calorimetric)” value stood at 107 kcal/mol. Moreover, for the setting “pH 7, phosphate 25 mM”, the “ddG of mutation (higher = less stable)” value was -0.35 kcal/mol; the unfolding free energy worked out at 6.38 kcal/mol; the melting temperature (Tm) stood at 82.9 °C; the “change of melting temperature, mutant” value turned out to be 0.65 °C. In addition, the “unfolding enthalpy (calorimetric)” value (pH 7, phosphate 25 mM) stood at 192 kcal/mol. Further, where the note is “pH 9.5, glycine 25 mM”, the “ddG of mutation (higher = less stable)” value is -0.05 kcal/mol; the unfolding free energy came out at 6.09 kcal/mol; the midpoint of thermal melting (Tm) was 80.9 °C; the “change of melting temperature, mutant” value stood at 0.17 °C. Also, the “unfolding enthalpy (calorimetric)” value (pH 9.5, glycine 25 mM) worked out at 188 kcal/mol.
For MRNTGAGPSPSVSRPPPSAAPLSGAALAAPGDAPSALYAPSALVLTVGKGVSATTAAPERAVTLTCAPGPSGTHPAAGSACADLAAVGGDLNALTRGEDVMCPVVYDPVLLTVDGVWQGKRVSYERVFSNECEMNAHGSSVFAF [M104V], for the setting “pH 3.2, glycine 25 mM”, the “ddG of mutation (higher = less stable)” value was 0.46 kcal/mol and the unfolding free energy came to 5.09 kcal/mol. Where the note is “pH 7, phosphate 25 mM”, the “ddG of mutation (higher = less stable)” value is 0.66 kcal/mol; the unfolding free energy is 5.37 kcal/mol; the melting temperature (Tm) was 81 °C; the “change of melting temperature, mutant” value is -1.17 °C. Further, for the setting “pH 7, phosphate 25 mM”, the “unfolding enthalpy (calorimetric)” value came out at 193 kcal/mol. Moreover, where the note is “pH 9.5, glycine 25 mM”, the “ddG of mutation (higher = less stable)” value worked out at 0.95 kcal/mol; the unfolding free energy is 5.09 kcal/mol; the Tm was 79 °C; the “change of melting temperature, mutant” value was -1.75 °C. Moreover, for the setting “pH 9.5, glycine 25 mM”, the “unfolding enthalpy (calorimetric)” value is 189 kcal/mol.
MRNTGAGPSPSVSRPPPSAAPLSGAALAAPGDAPSALYAPSALVLTVGKGVSATTAAPERAVTLTCAPGPSGTHPAAGSACADLAAVGGDLNALTRGEDVMCPDVYDPVLLTVDGVWQGKRVSYERVFSNECEMNAHGSSVFAF [M104D]: under “pH 3.2, glycine 25 mM”, the Tm worked out at 56.8 °C; the “change of melting temperature, mutant” value stood at 3.46 °C; the “unfolding enthalpy (calorimetric)” value was 98.7 kcal/mol. Moreover, for the setting “pH 7, phosphate 25 mM”, the “ddG of mutation (higher = less stable)” value was -1.6 kcal/mol; the unfolding free energy came out at 7.63 kcal/mol; the Tm was 85.3 °C; the “change of melting temperature, mutant” value was 3.08 °C. The “unfolding enthalpy (calorimetric)” value (pH 7, phosphate 25 mM) came out at 182 kcal/mol. In addition, for the setting “pH 9.5, glycine 25 mM”, the “ddG of mutation (higher = less stable)” value was -1.25 kcal/mol; the unfolding free energy was 7.29 kcal/mol; the Tm came to 83.3 °C; the “change of melting temperature, mutant” value amounted to 2.59 °C. Also, the “unfolding enthalpy (calorimetric)” value (pH 9.5, glycine 25 mM) worked out at 177 kcal/mol.
For MRNTGAGPSPSVSRPPPSAAPLSGAALAAPGDAPSALYAPSALVLTVGKGVSATTAAPERAVTLTCAPGPSGTHPAAGSACADLAAVGGDLNALTRGEDVMCPIVYDPVLLTVDGVWQGKRVSYERVFSNECEMNAHGSSVFAF [M104I], where the note is “pH 3.2, glycine 25 mM”, the “ddG of mutation (higher = less stable)” value amounted to 0.73 kcal/mol and the unfolding free energy came to 4.82 kcal/mol. For the setting “pH 7, phosphate 25 mM”, the “ddG of mutation (higher = less stable)” value was found to be 0.94 kcal/mol; the unfolding free energy stood at 5.09 kcal/mol; the melting temperature (Tm) was found to be 80.4 °C; the “change of melting temperature, mutant” value is -1.78 °C. Further, the “unfolding enthalpy (calorimetric)” value (pH 7, phosphate 25 mM) came to 193 kcal/mol. Moreover, for the setting “pH 9.5, glycine 25 mM”, the Tm worked out at 78.3 °C; the “change of melting temperature, mutant” value was -2.42 °C; the “unfolding enthalpy (calorimetric)” value turned out to be 189 kcal/mol.
